Measurements taken from PMC3852661, “Structural basis of SUFU–GLI interaction in human Hedgehog signalling regulation” (Acta Crystallographica Section D: Biological Crystallography, 2013).

Experiments:
MBP-SUFU-FL = biological target: T1, MBP-SUFU-FL (Homo sapiens, UniProt Q9UMX1); test: Thermal stability assay with peptide, MBP-SUFU-FL; type: binding; conditions: 44 µM peptide, 2.2 µM protein, SYPRO Orange, 50 mM Na HEPES pH 7.0, 50 mM NaCl, 5 mM β-mercaptoethanol; triplicate
T1 construct: containing residues 32–483 of human SUFU and a C-terminal hexahistidine tag; hexahistidine tag (C); made in house; host or cells: Escherichia coli JM109 (DE3)
Experimental: (§1) Recombinant MBP-SUFU proteins were diluted to 2.6 μM in 50 mM Na HEPES pH 7.0, 50 mM NaCl, 5 mM β-mercaptoethanol; the peptides GLI1p and GLI1p-SH (Supplementary Table S1b), synthesized by Dr W. Mawby (University of Bristol), were dissolved in the same buffer. Proteins were spun at 14 000g for 20 min at 4°C before adding SYPRO Orange (Molecular Probes) to a final concentration of 6×. Reaction volumes of 25 μl were prepared in 96-well PCR plates with 2.2 μM protein/SYPRO Orange solution and, where applicable, 44 μM peptide. Plates were sealed with optical tape, heated from 20 to 90°C in 12 s 0.2°C steps in an iCycler and fluorescence was detected using an excitation wavelength of 470 nm and an emission wavelength of 570 nm. To determine whether the IDR affects the GLI-binding properties of SUFU, we used a human GLI1-derived peptide (GLI1p; residues 115-131; Supplementary Table S1b) containing the highly conserved SYGH motif important for interaction with SUFU (Dunaeva et al., 2003[▶]) in a thermal stability assay with MBP-SUFU-FL and MBP-SUFU-Δ (Fig. 4 ▶ a). The addition of GLI1p stabilized both proteins: T m for MBP-SUFU-FL was shifted by 4°C and that for MBP-SUFU-Δ was shifted by 3.6°C. […] The GLI1 dose dependency of this effect was confirmed in a separate experiment with increasing GLI1p concentrations (Supplementary Fig. […]).

MBP-SUFU-SH = test: Thermal stability assay with peptide, MBP-SUFU-SH; type: binding, human; conditions: 44 µM peptide, 2.2 µM protein, SYPRO Orange, pH 7.0; triplicate
Experimental: Recombinant MBP-SUFU proteins were diluted to 2.6 µM in 50 mM Na HEPES pH 7.0, 50 mM NaCl, 5 mM β-mercaptoethanol; the peptides GLI1p and GLI1p-SH (Supplementary Table S1b), synthesized by Dr W. Mawby (University of Bristol), were dissolved in the same buffer. Proteins were spun at 14 000g for 20 min at 4°C before adding SYPRO Orange (Molecular Probes) to a final concentration of 6×. Reaction volumes of 25 µl were prepared in 96-well PCR plates with 2.2 µM protein/SYPRO Orange solution and, where applicable, 44 µM peptide. Plates were sealed with optical tape, heated from 20 to 90°C in 12 s 0.2°C steps in an iCycler and fluorescence was detected using an excitation wavelength of 470 nm and an emission wavelength of 570 nm.
Figure 4 The SUFU IDR has distinct structural properties. (a) Thermal stability assays of MBP-SUFU constructs performed in triplicate, either alone (blue) or with GLI1p (red) or GLI1p-SH (green). […] (b) Microscale thermophoresis experiments with FAM-GLI1p and titrated MBP-SUFU constructs, showing an average of three separate experiments. All proteins have similar affinity, but the thermophoretic properties of FAM-GLI1p are modified differently between the MBP-SUFU-FL construct and the MBP-SUFU-Δ and MBP-SUFU-SH constructs, reflecting a difference in shape.

MBP-SUFU-Δ = biological target: T2, MBP-SUFU-Δ (Homo sapiens, UniProt Q9UMX1, DEL285-359/L360P/P281R/P282G/R280S/S279P); test: Thermal stability assay with peptide, MBP-SUFU-Δ; type: binding; conditions: 44 µM peptide, 2.2 µM protein, SYPRO Orange, 50 mM Na HEPES pH 7.0, 50 mM NaCl, 5 mM β-mercaptoethanol; triplicate
T2 construct: subcloning different SUFU32–483 variants into vector pLJMBP4c; His tag (as in MBP-SUFU-FL; purified on HisTrap) (C); made in house; host or cells: Escherichia coli JM109 (DE3)
Experimental: as §1

Sequence of MBP-SUFU-SH (Q9UMX1 32-278 limits assumed): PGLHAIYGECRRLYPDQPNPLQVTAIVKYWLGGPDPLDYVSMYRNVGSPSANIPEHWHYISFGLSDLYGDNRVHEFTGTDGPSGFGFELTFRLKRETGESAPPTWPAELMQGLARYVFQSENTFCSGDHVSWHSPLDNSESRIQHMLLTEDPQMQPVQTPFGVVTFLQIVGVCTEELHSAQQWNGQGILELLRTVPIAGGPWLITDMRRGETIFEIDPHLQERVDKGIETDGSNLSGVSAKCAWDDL
Sequence of MBP-SUFU-SH (Q9UMX1 361-483 limits assumed): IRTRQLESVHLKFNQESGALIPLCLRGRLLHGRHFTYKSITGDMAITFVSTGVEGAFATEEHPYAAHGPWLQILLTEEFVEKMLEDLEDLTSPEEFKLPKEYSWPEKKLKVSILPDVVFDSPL
T2 sequence (Q9UMX1 with tags, fused parts or gaps S279P/R280S/P281R/P282G/DEL285-359/L360P limits assumed, other chains not shown): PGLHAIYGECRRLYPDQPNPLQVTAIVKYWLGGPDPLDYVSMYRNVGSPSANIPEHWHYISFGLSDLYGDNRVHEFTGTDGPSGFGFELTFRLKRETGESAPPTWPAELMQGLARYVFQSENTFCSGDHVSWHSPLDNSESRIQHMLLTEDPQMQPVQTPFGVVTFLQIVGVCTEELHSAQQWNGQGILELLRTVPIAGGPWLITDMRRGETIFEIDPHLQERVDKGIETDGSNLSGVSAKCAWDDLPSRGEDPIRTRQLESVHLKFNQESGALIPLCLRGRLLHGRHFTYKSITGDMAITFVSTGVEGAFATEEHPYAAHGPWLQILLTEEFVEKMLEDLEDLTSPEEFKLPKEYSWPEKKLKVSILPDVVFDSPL
T1 sequence (Q9UMX1 32-483, other chains not shown): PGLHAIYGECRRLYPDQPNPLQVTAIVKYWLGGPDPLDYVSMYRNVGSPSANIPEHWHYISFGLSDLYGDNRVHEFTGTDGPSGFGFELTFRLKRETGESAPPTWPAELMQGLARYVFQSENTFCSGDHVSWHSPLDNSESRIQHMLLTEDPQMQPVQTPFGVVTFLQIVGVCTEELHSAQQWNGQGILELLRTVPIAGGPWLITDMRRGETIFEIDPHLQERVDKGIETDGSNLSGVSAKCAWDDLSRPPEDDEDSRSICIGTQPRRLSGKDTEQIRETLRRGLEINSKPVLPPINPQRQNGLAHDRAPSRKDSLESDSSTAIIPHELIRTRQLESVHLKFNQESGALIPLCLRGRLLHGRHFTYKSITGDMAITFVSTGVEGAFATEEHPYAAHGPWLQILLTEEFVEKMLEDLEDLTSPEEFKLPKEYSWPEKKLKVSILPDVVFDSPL

Question: “GLI1p: human GLI1-derived peptide; residues 115–131, containing the highly conserved SYGH motif (TSPGGSYGHLSIGTMSP)” was tested. Which Tm shift (MBP-SUFU-FL) did it give?
Answer: 4 °C

Question: And the binding (MBP-SUFU-SH)?
Answer: All constructs bind to GLI1p

Question: And the Tm shift (MBP-SUFU-Δ)?
Answer: 3.6 °C
